Experimental findings from paper PMC10185811 are described below.

Test [1] has as its target T1, GST-NUB1L, Q9Y5A7-1.
T1 chain: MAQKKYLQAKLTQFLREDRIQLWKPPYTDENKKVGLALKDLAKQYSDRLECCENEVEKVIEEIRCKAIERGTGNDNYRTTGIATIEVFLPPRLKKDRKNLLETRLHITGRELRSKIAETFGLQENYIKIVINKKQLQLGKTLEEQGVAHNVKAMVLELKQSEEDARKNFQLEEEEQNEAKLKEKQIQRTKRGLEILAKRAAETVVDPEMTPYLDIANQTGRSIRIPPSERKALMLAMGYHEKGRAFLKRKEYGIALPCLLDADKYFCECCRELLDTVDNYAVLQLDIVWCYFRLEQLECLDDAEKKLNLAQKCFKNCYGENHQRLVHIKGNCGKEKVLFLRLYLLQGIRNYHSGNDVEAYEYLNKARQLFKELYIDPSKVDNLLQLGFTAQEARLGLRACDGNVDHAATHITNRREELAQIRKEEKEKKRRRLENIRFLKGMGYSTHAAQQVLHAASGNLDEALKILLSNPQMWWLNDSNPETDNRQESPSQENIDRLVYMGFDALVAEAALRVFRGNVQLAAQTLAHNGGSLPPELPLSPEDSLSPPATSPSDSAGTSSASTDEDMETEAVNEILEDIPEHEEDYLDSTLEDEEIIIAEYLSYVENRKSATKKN
Description: Octet (BLI). To be noted: chain shown with the change; GST-NUB1L on the sensor; His6-RPN1 variant in solution; parent: est. 0.58; read off a plot. (BLI is a label-free optical method that tracks binding on a fibre tip over time.)

Test [2] deals with T2, GST-RAD23, P54727.
T2 chain: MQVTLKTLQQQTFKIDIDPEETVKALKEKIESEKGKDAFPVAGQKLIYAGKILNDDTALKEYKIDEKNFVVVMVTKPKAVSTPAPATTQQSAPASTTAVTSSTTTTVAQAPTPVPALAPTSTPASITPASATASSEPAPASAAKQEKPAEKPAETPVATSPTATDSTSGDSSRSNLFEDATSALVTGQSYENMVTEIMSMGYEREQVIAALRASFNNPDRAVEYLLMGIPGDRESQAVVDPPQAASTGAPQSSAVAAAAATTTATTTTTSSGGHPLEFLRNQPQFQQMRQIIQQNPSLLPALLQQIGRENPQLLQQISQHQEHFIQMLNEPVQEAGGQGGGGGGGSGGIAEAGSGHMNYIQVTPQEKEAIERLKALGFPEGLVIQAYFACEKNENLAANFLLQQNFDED
The test can be described thus: Octet (BLI). To be noted: chain shown with the change; GST-RAD23 on the sensor; GST control curve in the same panel reaches est. 0.13 nm; read off a plot.

B1: His6-RPN1 WT, Q13200 T2 (protein)
chain: MEEGGRDKAPVQPQQSPAAAPGGTDEKPSGKERRDAGDKDKEQELSEEDKQLQDELEMLVERLGEKDTSLYRPALEELRRQIRSSTTSMTSVPKPLKFLRPHYGKLKEIYENMAPGENKRFAADIISVLAMTMSGERECLKYRLVGSQEELASWGHEYVRHLAGEVAKEWQELDDAEKVQREPLLTLVKEIVPYNMAHNAEHEACDLLMEIEQVDMLEKDIDENAYAKVCLYLTSCVNYVPEPENSALLRCALGVFRKFSRFPEALRLALMLNDMELVEDIFTSCKDVVVQKQMAFMLGRHGVFLELSEDVEEYEDLTEIMSNVQLNSNFLALARELDIMEPKVPDDIYKTHLENNRFGGSGSQVDSARMNLASSFVNGFVNAAFGQDKLLTDDGNKWLYKNKDHGMLSAAASLGMILLWDAKGGLAAIDKYLYSSEDYIKSGALLACGIVNSGVRNECDPALALLSDYVLHNSNTMRLGSIFGLGLAYAGSNREDVLTLLLPVMGDSKSSMEVAGVTALACGMIAVGSCNGDVTSTILQTIMEKSETELKDTYARWLPLGLGLNHLGKGEAIEAILAALEVVSEPFRSFANTLVDVCAYAGSGNVLKVQQLLHICSEHFDSKEKEEDKDKKEKKDKDKKEAPADMGAHQGVAVLGIALIAMGEEIGAEMALRTFGHLLRYGEPTLRRAVPLALALISVSNPRLNILDTLSKFSHDADPEVSYNSIFAMGMVGSGTNNARLAAMLRQLAQYHAKDPNNLFMVRLAQGLTHLGKGTLTLCPYHSDRQLMSQVAVAGLLTVLVSFLDVRNIILGKSHYVLYGLVAAMQPRMLVTFDEELRPLPVSVRVGQAVDVVGQAGKPKTITGFQTHTTPVLLAHGERAELATEEFLPVTPILEGFVILRKNPNYDL
Consider B1, for which the figures for the response in test [1] and in test [2] were 0.28 nm and 0.25 nm, respectively.

B2: His6-RPN1 WT, Q13200 T1; T2 (protein)
chain: MEEGGRDKAPVQPQQSPAAAPGGTDEKPSGKERRDAGDKDKEQELSEEDKQLQDELEMLVERLGEKDTSLYRPALEELRRQIRSSTTSMTSVPKPLKFLRPHYGKLKEIYENMAPGENKRFAADIISVLAMTMSGERECLKYRLVGSQEELASWGHEYVRHLAGEVAKEWQELDDAEKVQREPLLTLVKEIVPYNMAHNAEHEACDLLMEIEQVDMLEKDIDENAYAKVCLYLTSCVNYVPEPENSALLRCALGVFRKFSRFPEALRLALMLNDMELVEDIFTSCKDVVVQKQMAFMLGRHGVFLELSEDVEEYEDLTEIMSNVQLNSNFLALARELDIMEPKVPDDIYKTHLENNRFGGSGSQVDSARMNLASSFVNGFVNAAFGQDKLLTDDGNKWLYKNKDHGMLSAAASLGMILLWDAKGGLAAIDKYLYSSEDYIKSGALLACGIVNSGVRNECDPALALLSDYVLHNSNTMRLGSIFGLGLAYAGSNREDVLTLLLPVMGDSKSSMEVAGVTALACGMIAVGSCNGAVTSTILRTIMRKSETELKDTYARWLPLGLGLNHLGKGEAIEAILAALEVVSEPFRSFANTLVDVCAYAGSGNVLKVQQLLHICSEHFDSKEKEEDKDKKEKKDKDKKEAPADMGAHQGVAVLGIALIAMGEEIGAEMALRTFGHLLRYGEPTLRRAVPLALALISVSNPRLNILDTLSKFSHDADPEVSYNSIFAMGMVGSGTNNARLAAMLRQLAQYHAKDPNNLFMVRLAQGLTHLGKGTLTLCPYHSDRQLMSQVAVAGLLTVLVSFLDVRNIILGKSHYVLYGLVAAMQPRMLVTFDEELRPLPVSVRVGQAVDVVGQAGKPKTITGFQTHTTPVLLAHGERAELATEEFLPVTPILEGFVILRKNPNYDL
On to B2, for which the response in test [1] came out at 0.18 nm.
